Data as given in PMC4409382, “Structural Analysis of the 14-3-3ζ/Chibby Interaction Involved in Wnt/β-Catenin Signaling” (PLoS ONE, 2015).
Square brackets hold non-standard residues; d marks the D form. Ends that are not written are not given here. pS = N[C@@H](COP(=O)(O)O)C(=O)O

Key:
14-3-3ζΔC12 [1] = target: T1, 14-3-3ζΔC12 (human, UniProt P63104 1-233); assay: ITC; duplicate set of titrations; 5 uL aliquots of ~1-2 mM peptide titrated into the 1.4 mL cell with ~100-200 uM 14-3-3ζ; 25 °C; 50 mM sodium phosphate, 100 mM NaCl, 1 mM DTT, pH 6.8; one-site model; n per 14-3-3 monomer; conditions: both partners purified
T1 construct: N-terminal glycine retained after TEV cleavage of the His tag; 14-3-3 zeta, human, full-length 14-3-3ζ with the 12 C-terminal residues deleted; source: E. coli BL21 (DE3) pLysS, purified (Ni Sepharose, TEV cleavage, second Ni Sepharose pass); not shown: His tag, N-terminal, cleaved
T1 sequence: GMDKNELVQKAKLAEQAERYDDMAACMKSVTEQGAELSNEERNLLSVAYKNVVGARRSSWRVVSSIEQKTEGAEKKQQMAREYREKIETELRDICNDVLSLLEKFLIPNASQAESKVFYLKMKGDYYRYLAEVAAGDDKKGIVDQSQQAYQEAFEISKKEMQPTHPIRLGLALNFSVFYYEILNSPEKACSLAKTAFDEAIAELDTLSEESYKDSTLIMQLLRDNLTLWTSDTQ

14-3-3ζΔC12 [2] = target: T2, 14-3-3ζΔC12 (human, UniProt P63104 1-233); assay: ITC; VP-ITC, 25°C; ~1-2 mM peptide titrated in 5 uL aliquots into ~100-200 uM 14-3-3ζ in the cell; 50 mM sodium phosphate, 100 mM NaCl, 1 mM DTT, pH 6.8; one-site model; in duplicate; conditions: both partners purified
T2 construct: N-terminal glycine retained after TEV cleavage of the His tag; 14-3-3ζ, human, full-length construct with the 12 C-terminal residues deleted; Unlabelled for ITC; 15N, 13C, 2H labelled for the NMR titrations; also called 14-3-3ζ with the C-terminal 12 residues removed; source: E. coli BL21 (DE3) pLysS, purified (Ni Sepharose, TEV cleavage, second Ni Sepharose pass); not shown: His tag, N-terminal, …
T2 sequence: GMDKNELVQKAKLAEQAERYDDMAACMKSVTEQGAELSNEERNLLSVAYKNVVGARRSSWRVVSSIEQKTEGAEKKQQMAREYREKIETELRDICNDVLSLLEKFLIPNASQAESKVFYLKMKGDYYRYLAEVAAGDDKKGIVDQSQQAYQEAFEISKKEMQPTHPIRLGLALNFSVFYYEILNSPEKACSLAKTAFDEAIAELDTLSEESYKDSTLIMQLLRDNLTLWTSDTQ

14-3-3ζ = target: T3, 14-3-3ζ (human, UniProt P63104 1-245); assay: ITC; duplicate set of titrations; 5 uL aliquots of ~1-2 mM peptide titrated into the 1.4 mL cell with ~100-200 uM 14-3-3ζ; 25 °C; 50 mM sodium phosphate, 100 mM NaCl, 1 mM DTT, pH 6.8; one-site model; n per 14-3-3 monomer; conditions: both partners purified
T3 construct: N-terminal glycine retained after TEV cleavage of the His tag; 14-3-3 zeta, human, ORF purchased from GeneCopoeia, full-length construct; Dimer (~56 kDa); the stoichiometry n counts on the 14-3-3 monomer; also called full-length 14-3-3ζ; source: E. coli BL21 (DE3) pLysS, purified (Ni Sepharose, TEV cleavage, second Ni Sepharose pass); not shown: His tag, N-terminal, cleaved
T3 sequence: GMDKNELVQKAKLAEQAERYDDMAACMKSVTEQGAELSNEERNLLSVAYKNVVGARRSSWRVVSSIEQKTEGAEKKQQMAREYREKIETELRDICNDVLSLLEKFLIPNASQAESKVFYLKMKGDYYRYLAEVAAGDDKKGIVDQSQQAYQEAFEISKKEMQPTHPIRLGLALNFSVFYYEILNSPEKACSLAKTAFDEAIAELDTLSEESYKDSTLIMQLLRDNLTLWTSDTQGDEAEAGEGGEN

[3] = target: the molecule itself; assay: crystal structure; 14-3-3ζ (10 mg/mL) co-crystallised with the phosphorylated Cby 18-mer (protein:peptide 1:4), 20 mM Tris pH 7.5, 100 mM NaCl; reservoir 200 mM NH4HCO2, 16-20% PEG 3350; 4°C; 2.41 Å
Chibby 18-mer L24A = target: T4, Chibby 18-mer L24A (Homo sapiens, UniProt Q9Y3M2); assay: ITC
T4 chain: KTPPRKSASLSNAHSLDR

Chibby 18-mer = target: T5, Chibby 18-mer (Homo sapiens, UniProt Q9Y3M2); assay: ITC
T5 chain: KTPPRKSA[pS]LSNLHSLDR

Chibby 7-mer = target: T6, Chibby 7-mer (Homo sapiens, UniProt Q9Y3M2); assay: ITC
T6 chain: Ac-RKSA[pS]LS-NH2

Chibby 13-mer = target: T7, Chibby 13-mer (Homo sapiens, UniProt Q9Y3M2); assay: ITC
T7 chain: KTPPRKSA[pS]LSNL

Chibby 13-mer S22P = target: T8, Chibby 13-mer S22P (Homo sapiens, UniProt Q9Y3M2); assay: ITC
T8 chain: KTPPRKSASLPNL

Chibby 7-mer S22P = target: T9, Chibby 7-mer S22P (Homo sapiens, UniProt Q9Y3M2); assay: ITC
T9 chain: RKSASLP

Chibby 11-mer = target: T10, Chibby 11-mer (Homo sapiens, UniProt Q9Y3M2); assay: ITC
T10 chain: H-KTPPRKSA[pS]LS-NH2

B1: pCby 13-mer (peptide)
peptide: KTPPRKSA[pS]LSNL
notes: Chibby (Cby), human, residues 12-24; source: synthetic peptide, bought: GenScript USA Inc
Kd (14-3-3ζΔC12 [1]): 14.5 µM
stoichiometry N (14-3-3ζΔC12 [1]): 1.06

B2: pCby 13-mer (peptide)
peptide: KTPPRKSA[pS]LSNL
notes: Chibby (Cby), human, residues 12-24; free NH2 and COOH ends; also called phosphorylated Cby peptide; source: synthetic peptide, bought: GenScript USA Inc
Kd (14-3-3ζΔC12 [2]): 14.9 µM
dH (14-3-3ζΔC12 [2]): -2.08 ± 0.03 kcal/mol
stoichiometry N (14-3-3ζΔC12 [2]): 0.99

B3: pCby S22P 13-mer (peptide)
peptide: KTPPRKSA[pS]LPNL
notes: Chibby (Cby), human, residues 12-24 with S22P; also called Cby 13-mer S22P; source: synthetic peptide, bought: TUFTS University Core Facility
Kd (14-3-3ζ): 1.3 µM
stoichiometry N (14-3-3ζ): 1.02

B4: 14-3-3ζ (human, full-length) (natural protein)
chain: GMDKNELVQKAKLAEQAERYDDMAACMKSVTEQGAELSNEERNLLSVAYKNVVGARRSSWRVVSSIEQKTEGAEKKQQMAREYREKIETELRDICNDVLSLLEKFLIPNASQAESKVFYLKMKGDYYRYLAEVAAGDDKKGIVDQSQQAYQEAFEISKKEMQPTHPIRLGLALNFSVFYYEILNSPEKACSLAKTAFDEAIAELDTLSEESYKDSTLIMQLLRDNLTLWTSDTQGDEAEAGEGGEN
notes: N-terminal glycine retained after TEV cleavage of the His tag; 14-3-3ζ, human, ORF bought from GeneCopoeia, in Gateway pDEST17; full-length; Dimer in the crystal; the ITC stoichiometry counts on the 14-3-3 monomer; also called WT 14-3-3ζ; source: E. coli BL21 (DE3) pLysS, purified (Ni Sepharose, TEV cleavage, second Ni Sepharose pass); not shown: His tag, N-terminal, cleaved
binding result [3]: binds

B5: 14-3-3ζ (protein)
chain: MDKNELVQKAKLAEQAERYDDMAACMKSVTEQGAELSNEERNLLSVAYKNVVGARRSSWRVVSSIEQKTEGAEKKQQMAREYREKIETELRDICNDVLSLLEKFLIPNASQAESKVFYLKMKGDYYRYLAEVAAGDDKKGIVDQSQQAYQEAFEISKKEMQPTHPIRLGLALNFSVFYYEILNSPEKACSLAKTAFDEAIAELDTLSEESYKDSTLIMQLLRDNLTLWTSDTQGDEAEAGEGGEN
Kd (Chibby 18-mer L24A): ~21 µM
Kd (Chibby 18-mer): ~5 µM
Kd (Chibby 7-mer): ~44 µM
Kd (Chibby 13-mer): ~15 µM
Kd (Chibby 13-mer S22P): ~1 µM
Kd (Chibby 7-mer S22P): ~3 µM
Kd (Chibby 11-mer): ~18 µM

B6: pCby 11-mer (peptide)
peptide: KTPPRKSA[pS]LS-NH2
modifications: N-terminus assumed
SMILES: CC(C)C[C@H](NC(=O)[C@H](COP(=O)(O)O)NC(=O)[C@H](C)NC(=O)[C@H](CO)NC(=O)[C@H](CCCCN)NC(=O)[C@H](CCCNC(=N)N)NC(=O)[C@@H]1CCCN1C(=O)[C@@H]1CCCN1C(=O)[C@@H](NC(=O)[C@@H](N)CCCCN)[C@@H](C)O)C(=O)N[C@@H](CO)C(N)=O
notes: Chibby (Cby), human, residues 12-22; source: synthetic peptide, bought: TUFTS University Core Facility
Kd (14-3-3ζ): 17.5 µM
stoichiometry N (14-3-3ζ): 0.96
